Earlier results in publication PMC8869670.

Target: Thioredoxin (Homo sapiens) (UniProt P10599)
Sequence (P10599 2-105): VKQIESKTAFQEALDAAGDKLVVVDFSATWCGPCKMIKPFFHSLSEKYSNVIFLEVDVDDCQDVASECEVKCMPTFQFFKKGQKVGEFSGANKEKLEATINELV

## p53 (from UniProt P04637)
  Kd: 900 nM
